For 36 variants, abundance fitness results are on record in the Human Domainome abundance scans (Beltran et al. 2025).

The labels stand for the following.
B1: POU domain, class 3, transcription factor 2, residues 262 to 338; numbered along this chain, P20265 (parent)
chain: EDTPTSDDLEQFAKQFKQRRIKLGFTQADVGLALGTLYGNVFSQTTICRFEALQLSFKNMCKLKPLLNKWLEEADSS

± gives the uncertainty stated by the source.

This data set covers variants of B1. The data set can be described thus: abundance fitness (aPCA) (normalised: wild type 0, dead -1); higher = more abundant; growth selection in yeast, the domain comes from the species named. Conditions: Homo sapiens.
With EDTPTSDDLEQFAKQFKQRRIKLGFTQADVGLALGTLYGNVFSQTTICRFEALQLSFKNMCKLKPLLNKWLEEKDSS, the abundance fitness is -0.037 ± 0.051.

With EDTPTSDDLEQFAKQFKQRRIKLGFTQADVGLALGTLYGNVFSQTTICRFEALQLSFKNMCKLKPLLNKWLEEWDSS, the abundance fitness was -0.172 ± 0.036.

For the variant EDTPTSDDLEQFAKQFKQRRIKLGFTQADVGLALGTLYGNVFSQTTICRFEALQLSFKNMCKLKPLLNKWLEEMDSS, the abundance fitness is -0.088 ± 0.049.

As to EDTPTSDDLEQFAKQFKQRRIKLGFTQADVGLALGTLYGNVFSQTTICRFEALQLSFKNMCKLKPLLNKWLEECDSS, the abundance fitness was determined as 0.034 ± 0.046.

On to EDTPTSDDLEQFAKQFKQRRIKLGFTQADVGLALGTLYGNVFSQTTICRFEALQLSFKNMCKLKPLLNKWLEEHDSS, for which the abundance fitness is -0.032 ± 0.067.

With EDTPTSDDLEQFAKQFKQRRIKLGFTQADVGLALGTLYGNVFSQTTICRFEALQLSFKNMCKLKPLLNKWLEERDSS, the abundance fitness is -0.036 ± 0.029.

For EDTPTSDDLEQFAKQFKQRRIKLGFTQADVGLALGTLYGNVFSQTTICRFEALQLSFKNMCKLKPLLNKWLEEVDSS, the abundance fitness is 0.041 ± 0.034.

Regarding EDTPTSDDLEQFAKQFKQRRIKLGFTQADVGLALGTLYGNVFSQTTICRFEALQLSFKNMCKLKPLLNKWLEEGDSS, the abundance fitness is -0.331 ± 0.03.

EDTPTSDDLEQFAKQFKQRRIKLGFTQADVGLALGTLYGNVFSQTTICRFEALQLSFKNMCKLKPLLNKWLEEEDSS: the abundance fitness is -0.065 ± 0.037.

With EDTPTSDDLEQFAKQFKQRRIKLGFTQADVGLALGTLYGNVFSQTTICRFEALQLSFKNMCKLKPLLNKWLEETDSS, the abundance fitness was -0.026 ± 0.05.

Take EDTPTSDDLEQFAKQFKQRRIKLGFTQADVGLALGTLYGNVFSQTTICRFEALQLSFKNMCKLKPLLNKWLEEPDSS: the abundance fitness is -0.274 ± 0.068.

As to EDTPTSDDLEQFAKQFKQRRIKLGFTQADVGLALGTLYGNVFSQTTICRFEALQLSFKNMCKLKPLLNKWLIEADSS, the abundance fitness was -0.102 ± 0.058.

For the variant EDTPTSDDLEQFAKQFKQRRIKLGFTQADVGLALGTLYGNVFSQTTICRFEALQLSFKNMCKLKPLLNKWLVEADSS, the abundance fitness came out at 0.017 ± 0.035.

With EDTPTSDDLEQFAKQFKQRRIKLGFTQADVGLALGTLYGNVFSQTTICRFEALQLSFKNMCKLKPLLNKWLSEADSS, the abundance fitness is -0.13 ± 0.038.

With EDTPTSDDLEQFAKQFKQRRIKLGFTQADVGLALGTLYGNVFSQTTICRFEALQLSFKNMCKLKPLLNKWLLEADSS, the abundance fitness came out at 0.004 ± 0.035.

As to EDTPTSDDLEQFAKQFKQRRIKLGFTQADVGLALGTLYGNVFSQTTICRFEALQLSFKNMCKLKPLLNKWLTEADSS, the abundance fitness was -0.073 ± 0.042.

On to EDTPTSDDLEQFAKQFKQRRIKLGFTQADVGLALGTLYGNVFSQTTICRFEALQLSFKNMCKLKPLLNKWLGEADSS, for which the abundance fitness is -0.178 ± 0.033.

In the case of EDTPTSDDLEQFAKQFKQRRIKLGFTQADVGLALGTLYGNVFSQTTICRFEALQLSFKNMCKLKPLLNKWLQEADSS, the abundance fitness stood at 0.003 ± 0.051.

Consider EDTPTSDDLEQFAKQFKQRRIKLGFTQADVGLALGTLYGNVFSQTTICRFEALQLSFKNMCKLKPLLNKWLPEADSS, for which the abundance fitness was -0.655 ± 0.11.

As to EDTPTSDDLEQFAKQFKQRRIKLGFTQADVGLALGTLYGNVFSQTTICRFEALQLSFKNMCKLKPLLNKWLWEADSS, the abundance fitness is -0.177 ± 0.043.

Consider EDTPTSDDLEQFAKQFKQRRIKLGFTQADVGLALGTLYGNVFSQTTICRFEALQLSFKNMCKLKPLLNKWLFEADSS, for which the abundance fitness was -0.191 ± 0.066.

For EDTPTSDDLEQFAKQFKQRRIKLGFTQADVGLALGTLYGNVFSQTTICRFEALQLSFKNMCKLKPLLNKWLKEADSS, the abundance fitness was -0.12 ± 0.087.

For the variant EDTPTSDDLEQFAKQFKQRRIKLGFTQADVGLALGTLYGNVFSQTTICRFEALQLSFKNMCKLKPLLNKWLMEADSS, the abundance fitness was -0.117 ± 0.054.

For the variant EDTPTSDDLEQFAKQFKQRRIKLGFTQADVGLALGTLYGNVFSQTTICRFEALQLSFKNMCKLKPLLNKWLAEADSS, the abundance fitness was -0.017 ± 0.037.

Consider EDTPTSDDLEQFAKQFKQRRIKLGFTQADVGLALGTLYGNVFSQTTICRFEALQLSFKNMCKLKPLLNKWLYEADSS, for which the abundance fitness was -0.217 ± 0.085.

Regarding EDTPTSDDLEQFAKQFKQRRIKLGFTQADVGLALGTLYGNVFSQTTICRFEALQLSFKNMCKLKPLLNKWLCEADSS, the abundance fitness was -0.042 ± 0.056.

EDTPTSDDLEQFAKQFKQRRIKLGFTQADVGLALGTLYGNVFSQTTICRFEALQLSFKNMCKLKPLLNKWLNEADSS: the abundance fitness is -0.094 ± 0.063.

Take EDTPTSDDLEQFAKQFKQRRIKLGFTQADVGLALGTLYGNVFSQTTICRFEALQLSFKNMCKLKPLLNKWLREADSS: the abundance fitness was -0.068 ± 0.03.

As for EDTPTSDDLEQFAKQFKQRRIKLGFTQADVGLALGTLYGNVFSQTTICRFEALQLSFKNMCKLKPLLNKYLEEADSS, the abundance fitness was -0.381 ± 0.099.

For EDTPTSDDLEQFAKQFKQRRIKLGFTQADVGLALGTLYGNVFSQTTICRFEALQLSFKNMCKLKPLLNKWLEEAGSS, the abundance fitness was -0.032 ± 0.027.

EDTPTSDDLEQFAKQFKQRRIKLGFTQADVGLALGTLYGNVFSQTTICRFEALQLSFKNMCKLKPLLNKWLEEAISS: the abundance fitness was -0.089 ± 0.092.

Consider EDTPTSDDLEQFAKQFKQRRIKLGFTQADVGLALGTLYGNVFSQTTICRFEALQLSFKNMCKLKPLLNKWLEEAFSS, for which the abundance fitness is -0.3 ± 0.1.

Regarding EDTPTSDDLEQFAKQFKQRRIKLGFTQADVGLALGTLYGNVFSQTTICRFEALQLSFKNMCKLKPLLNKWLEEAHSS, the abundance fitness is -0.081 ± 0.06.

Turning to EDTPTSDDLEQFAKQFKQRRIKLGFTQADVGLALGTLYGNVFSQTTICRFEALQLSFKNMCKLKPLLNKWLEEAESS, the abundance fitness came to 0.071 ± 0.034.

Turning to EDTPTSDDLEQFAKQFKQRRIKLGFTQADVGLALGTLYGNVFSQTTICRFEALQLSFKNMCKLKPLLNKWLEEAASS, the abundance fitness worked out at 0.009 ± 0.031.

Turning to EDTPTSDDLEQFAKQFKQRRIKLGFTQADVGLALGTLYGNVFSQTTICRFEALQLSFKNMCKLKPLLNKWLEEACSS, the abundance fitness was -0.161 ± 0.049.
